Literature values as cited in PMC12730246.
pKd: −log10 of the molar value.

Target: TKS4 peptide (Homo sapiens) (UniProt A1X283)

**Q.** With “TKS4 tandem SH3 tandem SH3 (from UniProt A1X283)” as the substance, how does the pKd read?
**A.** 4.92
